Experiment [1] has as its target T1, FLAG-His-tagged AC1-M (AC1 amino acids 236-612) (bovine, UniProt P19754 236-612).
T1 construct: Ends of the tags as in the printed name His-AC1-M-FLAG; also called His-AC1-M-FLAG; M, cytosolic region between the 2 transmembrane domains; not shown: His, N-terminal, kept; FLAG, C-terminal, kept
Nature of the experiment: pull-down; pairwise pull-down, two purified proteins from E. coli, 5 μg of each, FLAG-His-tagged AC1 fragment held on anti-FLAG M2 affinity gel, Co-IP buffer, 500 μL, 2 hr at 4°C; washed with PBS containing 1% Triton X-100; western blot. The conditions noted are these: both partners purified. On the technique in general: In western blotting, separated proteins are transferred to a membrane and probed.

Experiment [2] has as its target T2, His-XIAP purified from E. coli (human, UniProt P98170 1-497).
T2 construct: also called purified XIAP; source: E. coli BL21, purified (Ni-NTA, with 200 μM zinc sulfate)
Description: pull-down; GST, GST-TRIP-Br1 or GST-TRIP-Br1 truncation mutants used to capture His-XIAP purified from E. coli. To be noted: both partners purified.

Two molecules from paper PMC5503512, “The complex of TRIP-Br1 and XIAP ubiquitinates and degrades multiple adenylyl cyclase isoforms” (eLife, 2017) can be followed below.

T2 sequence (P98170 whole entry): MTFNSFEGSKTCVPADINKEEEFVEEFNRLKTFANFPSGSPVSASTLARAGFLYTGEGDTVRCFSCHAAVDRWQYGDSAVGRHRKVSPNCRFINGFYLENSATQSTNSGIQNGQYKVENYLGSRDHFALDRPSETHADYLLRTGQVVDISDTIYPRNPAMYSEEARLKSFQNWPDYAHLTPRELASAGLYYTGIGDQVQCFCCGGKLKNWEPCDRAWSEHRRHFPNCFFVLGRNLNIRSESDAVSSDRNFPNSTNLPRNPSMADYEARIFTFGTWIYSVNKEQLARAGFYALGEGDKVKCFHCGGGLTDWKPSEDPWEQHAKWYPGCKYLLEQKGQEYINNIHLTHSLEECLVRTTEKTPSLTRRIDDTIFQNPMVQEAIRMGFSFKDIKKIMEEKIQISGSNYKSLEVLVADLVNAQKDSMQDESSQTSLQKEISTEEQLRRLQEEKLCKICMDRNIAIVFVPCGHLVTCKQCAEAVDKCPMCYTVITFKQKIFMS
T1 sequence (P19754 236-612): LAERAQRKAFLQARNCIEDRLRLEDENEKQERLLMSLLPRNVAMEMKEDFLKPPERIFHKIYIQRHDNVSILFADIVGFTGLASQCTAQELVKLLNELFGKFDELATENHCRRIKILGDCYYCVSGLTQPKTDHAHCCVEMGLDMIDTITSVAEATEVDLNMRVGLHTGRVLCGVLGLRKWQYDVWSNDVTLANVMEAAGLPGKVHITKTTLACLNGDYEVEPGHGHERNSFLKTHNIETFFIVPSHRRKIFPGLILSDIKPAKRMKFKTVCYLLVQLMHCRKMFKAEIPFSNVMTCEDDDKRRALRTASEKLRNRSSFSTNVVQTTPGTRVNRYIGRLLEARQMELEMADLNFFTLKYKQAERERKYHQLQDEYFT

B1: purified TRIP-Br1 (His-tagged at both N and C termini) (natural protein, human, UniProt Q9UHV2 1-236, looked up)
chain: MLSKGLKRKREEEEEKEPLAVDSWWLDPGHTAVAQAPPAVASSSLFDLSVLKLHHSLQQSEPDLRHLVLVVNTLRRIQASMAPAAALPPVPSPPAAPSVADNLLASSDAALSASMASLLEDLSHIEGLSQAPQPLADEGPPGRSIGGAAPSLGALDLLGPATGCLLDDGLEGLFEDIDTSMYDNELWAPASEGLKPGPEDGPGKEEAPELDEAELDYLMDVLVGTQALERPPGPGR
notes: TRIP-Br1 (SERTAD1), human, cDNA amplified from Calu-3 cells; The methods call it His-TRIP-Br1; the legends say His-tagged at both termini; also called His-TRIP-Br1; source: E. coli BL21 (codon plus), purified (Ni-NTA); not shown: His, N-terminal, kept; His, C-terminal, kept
For the molecule B1, the binding result in experiment [1] was “binds”.

B2: GST-TRIP-Br1 fusion protein (full-length TRIP-Br1 fused with GST) (natural protein, human, UniProt Q9UHV2 1-236, looked up)
chain: B1 chain
notes: also called Sertad1; SEI-1; source: E. coli BL21 codon plus, purified (glutathione-Sepharose)
B2: the binding result in experiment [2] is “binds”.
